Data: US9879094B2, “Nucleic acid molecules encoding for BACE1 antibodies” (Genentech, Inc., priority 2010, dated 2018)
“And” between values parts separate entries of the source, which are not always exact repeats. Equal values may be shown once. “Also recorded” adds a separate entry of the source.

Legend:
[1] = Antibody concentration in brain of hAPP transgenic mice; assay type: in vivo, mouse
Description: Briefly, 5-month old human APP-expressing mice were treated with 30 mg/kg or 100 mg/kg YW412.8.31 antibody or vehicle by intra-peritoneal injection every four days for a total of three doses (i.e., at days 1, 5, and 9). Animals were euthanized two hours post the final dose. Serum, plasma, and brains were harvested and processed. Plasma, cortex and hippocampus were analyzed for levels of soluble Aβ1-40 and Aβ1-42 using an Amyloid beta (Aβ) ELISA test kit per manufacture's instructions (The Genetics Company). Pharmacokinetic analysis was performed on serum and brain homogenates.
Similar experiments were also performed in which YW412.8.31 anti-BACE1 antibody was delivered systemically or directly into hAPP transgenic mice brains by continuous ICV infusion. For ICV delivery, antibody was delivered continuously for 7 days via an Alzet osmotic minipump (model 2001) implanted unilaterally. The amount of YW412.8.31 antibody delivered was 0.041 mg/day (low dose) or 0.41 mg/day (high dose); 0.33 mg/day Control IgG was delivered to the control group. At euthanasia, plasma, cortex, and hippocampus were harvested and analyzed for levels of soluble Aβ1-40 and Aβ1-42 by ELISA (The Genetics Company) following manufacturer's instructions.
Total anti-BACE1 antibody concentrations in mouse serum and brain samples were measured as follows. Antibody concentrations in mouse serum and brain samples were measured using an enzyme-linked immunosorbent assay (ELISA). NUNC 384 well Maxisorp immunoplates (Neptune, N.J.) were coated with F(ab′)2 fragment of donkey anti-human IgG, Fc fragment specific polyclonal antibody (Jackson ImmunoResearch, West Grove, Pa.) overnight at 4° C. Plates were blocked with phosphate-buffered saline (PBS) containing 0.5% bovine serum albumin (BSA) for 1 hour at room temperature the next day. Each antibody (Control IgG and anti-BACE1) was used as a standard to quantify the respective antibody concentrations. After washing plates with PBS containing 0.05% Tween 20 using a microplate washer (Bio-Tek Instruments, Inc., Winooski, Vt.), standards and samples diluted in PBS containing 0.5% BSA, 0.35 M NaCl, 0.25% CHAPS, 5 mM EDTA, 0.05% Tween 20 and 15 ppm Proclin were incubated on plates for 2 hours at room temperature with mild agitation. Bound antibody was detected with horseradish peroxidase conjugated F(ab′)2 goat anti-human IgG, Fc specific polyclonal antibody (Jackson ImmunoResearch). Finally, plates were developed using the substrate 3,3′,5,5′-tetramethyl benzidine (TMB) (KPL, Inc., Gaithersburg, Md.). Absorbance was measured at a wavelength of 450 nm with a reference of 630 nm on a Multiskan Ascent reader (Thermo Scientific, Hudson, N.H.). Concentrations were determined from the standard curve using a four-parameter non-linear regression program.

[2] = system: Aβ1-40 in wild-type C57Bl/6J mice; assay: Wild-type C57Bl/6J mice, IP dosing, Aβ1-40 levels; assay type: in vivo, mouse
Description: Additional experiments with wild-type C57Bl/6J mice were performed in which 100 mg/kg of YW412.8.31, or a control IgG, was administered systemically. Levels of Aβ1-40 in both the plasma and forebrain of treated animals four hours after a single intraperitoneal (IP) injection were determined. Blood was collected from animals by cardiac puncture to isolate plasma.
Following PBS perfusion, the brain was harvested and forebrain from one hemibrain was prepared in PK buffer (1% NP-40 in PBS, with Roche complete protease inhibitors) whereas forebrain from the other hemibrain was homogenized in 5M GuHCL, 50 mM Tris pH 8.0, and further diluted in Casein Blocking Buffer (0.25% casein/0.05% sodium azide, 20 μg/ml aprotinin/5 mM EDTA, pH 8.0/10 μg/ml leupeptin in PBS) for Aβ1-40 analysis.
Additional experiments were performed in order to determine the effect of elevated brain antibody levels through repeated dosing. YW412.8.31 antibody, or control IgG, was administered at 30 or 100 mg/kg IP every 4 days for a total of 3 doses. In this study the levels of Aβ1-40 in both the plasma and forebrain of treated animals 4 hours post last dose were measured. Again, ˜50% reduction in plasma Aβ1-40 levels following multi-dosing at both 30 and 100 mg/kg was observed (FIG. 22, panel B). […] YW412.8.31 antibody concentrations in serum were 480±210 and 1500±440 μg/mL, and concentrations in brain were 0.9±0.6 μg/g (5.9±4.3 nM) and 3.0±1.6 μg/g (20±10 nM) following administration at 30 and 100 mg/kg given every 4 days, respectively.

[3] = system: Aβ1-40 in Cynomolgus monkeys; assay: Cynomolgus monkeys, single IV dose, Aβ1-40 in plasma and CSF; assay type: in vivo, Cynomolgus monkey; conditions: 30 mg/kg IV
Description: Cynomolgus monkeys were dosed with control IgG or YW412.8.31 anti-BACE1 antibody (30 mg/kg) by IV delivery. Plasma and CSF were sampled up to 7 days prior to dosing to set mean baseline Aβ1-40 levels in each in individual animal, and then at various times after dosing. Total anti-BACE1 or control antibody concentrations in monkey serum and CSF samples were measured using monkey-adsorbed goat anti-human IgG polyclonal antibody (Bethyl, Montgomery, Tex.) as both coat and detection (FIG. 20). Free anti-BACE1 antibody concentrations in monkeys were determined using BACE1 ECD as coat and the monkey-adsorbed goat anti-human IgG antibody (Bethyl) for detection.
Aβ1-40 levels in plasma and CSF from Cynomolgus monkeys tested was also determined. Briefly, the concentrations of total cyno Aβ1-40 in plasma were determined using MSD MA6000 Human (6E10) Abeta Kit (Cat#K111BVE-2, Meso Scale Diagnostics) according to the Manufacturer's instructions. The capture antibody, specific for the C terminus of Aβ1-40, was pre-coated on the plates, and Sulfo-Tag anti-Aβ monoclonal antibody 6E10 was used for detection. The assay had lower limit of quantification values of 49.4 pg/ml in plasma. The concentrations of total cyno Aβ1-40 in CSF were determined using a sandwich ELISA. […]

B1: YW412.8.31: affinity matured form of YW412.8 anti-BACE1 antibody (antibody, V domains shown)
VH: EVQLVESGGGLVQPGGSLRLSCAASGFTFLGYGIHWVRQAPGKGLEWVGWISPAGGSTDYADSVKGRFTISADTSKNTAYLQMNSLRAEDTAVYYCARGPFSPWVMDYWGQGTLVTVSS
VL: DIQMTQSPSSLSASVGDRVTITCRASQDVSTAVAWYQQKPGKAPKLLIYSASFLYSGVPSRFSGSGSGTDFTLTISSLQPEDFATYYCQQFPTYLPTFGQGTKVEIK
[1]; systemic delivery 30 mg/kg
  ANTIBODY CONCENTRATION IN BRAIN: 0.7 μG/G
  antibody concentration in brain: 4.8 ± 3.6 nM and 4.8 nM
[1]; systemic delivery 100 mg/kg
  ANTIBODY CONCENTRATION IN BRAIN: 2.1 μG/G
  antibody concentration in brain: 14.0 ± 9.3 nM and 14 nM
[2]; 30 mg/kg IP, 3 doses every 4 days
  reduction of forebrain Aβ1-40: no reduction; also recorded: not reduced
[2]; 100 mg/kg IP, 3 doses every 4 days
  reduction of forebrain Aβ1-40: 42%
[2]; 100 mg/kg single IP, 4 hours
  change in forebrain Aβ1-40: no change; also recorded: not reduced
  reduction of plasma Aβ1-40: ~50% and 48%
[2]; 30 and 100 mg/kg IP, 3 doses every 4 days, 4 hours after last dose
  reduction of plasma Aβ1-40: ~50% and 50-53%
[3]; 1 and 3 days following dosing
  reduction of CSF Aβ1-40: up to 50%
[3]; sustained over 7 days
  reduction of plasma Aβ1-40 from baseline: ~50%
